According to publication PMC6359974:

Target: polymerized MTs of COV362 lysate (taxol-treated) (human (endogenous in COV362)) (UniProt P68363)
Assay: co-sedimentation

Chain of UniProt P68363 (P68363 whole entry, chain 1 of 2): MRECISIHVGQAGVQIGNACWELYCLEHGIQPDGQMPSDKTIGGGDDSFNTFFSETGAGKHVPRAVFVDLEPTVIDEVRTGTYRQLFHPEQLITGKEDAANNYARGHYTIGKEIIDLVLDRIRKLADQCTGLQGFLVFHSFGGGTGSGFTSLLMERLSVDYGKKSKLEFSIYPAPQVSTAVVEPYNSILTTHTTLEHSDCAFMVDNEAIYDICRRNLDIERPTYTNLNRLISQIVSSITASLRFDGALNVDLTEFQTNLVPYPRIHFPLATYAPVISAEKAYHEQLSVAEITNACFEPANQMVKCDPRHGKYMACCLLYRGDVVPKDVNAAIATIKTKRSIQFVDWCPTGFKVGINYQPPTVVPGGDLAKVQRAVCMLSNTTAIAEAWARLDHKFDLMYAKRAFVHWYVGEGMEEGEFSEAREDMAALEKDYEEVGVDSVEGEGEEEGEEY
Chain of UniProt P68363 (P07437 whole entry, chain 2 of 2, further chain): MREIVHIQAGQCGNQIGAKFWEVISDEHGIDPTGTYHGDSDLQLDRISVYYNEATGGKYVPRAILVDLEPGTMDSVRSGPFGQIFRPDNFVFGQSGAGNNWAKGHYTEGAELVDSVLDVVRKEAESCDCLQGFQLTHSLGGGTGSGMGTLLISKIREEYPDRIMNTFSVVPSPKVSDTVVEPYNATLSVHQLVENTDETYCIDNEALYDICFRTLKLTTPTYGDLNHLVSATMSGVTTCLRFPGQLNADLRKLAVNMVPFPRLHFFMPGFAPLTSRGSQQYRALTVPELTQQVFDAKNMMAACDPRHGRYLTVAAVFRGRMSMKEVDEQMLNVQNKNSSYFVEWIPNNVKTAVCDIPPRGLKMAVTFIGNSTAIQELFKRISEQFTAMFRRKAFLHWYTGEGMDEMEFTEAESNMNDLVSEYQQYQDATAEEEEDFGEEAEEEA

B1: UNC-45A (endogenous, COV362 cells) (natural protein)
chain: MTVSGPGTPEPRPATPGASSVEQLRKEGNELFKCGDYGGALAAYTQALGLDATPQDQAVLHRNRAACHLKLEDYDKAETEASKAIEKDGGDVKALYRRSQALEKLGRLDQAVLDLQRCVSLEPKNKVFQEALRNIGGQIQEKVRYMSSTDAKVEQMFQILLDPEEKGTEKKQKASQNLVVLAREDAGAEKIFRSNGVQLLQRLLDMGETDLMLAALRTLVGICSEHQSRTVATLSILGTRRVVSILGVESQAVSLAACHLLQVMFDALKEGVKKGFRGKEGAIIVDPARELKVLISNLLDLLTEVGVSGQGRDNALTLLIKAVPRKSLKDPNNSLTLWVIDQGLKKILEVGGSLQDPPGELAVTANSRMSASILLSKLFDDLKCDAERENFHRLCENYIKSWFEGQGLAGKLRAIQTVSCLLQGPCDAGNRALELSGVMESVIALCASEQEEEQLVAVEALIHAAGKAKRASFITANGVSLLKDLYKCSEKDSIRIRALVGLCKLGSAGGTDFSMKQFAEGSTLKLAKQCRKWLCNDQIDAGTRRWAVEGLAYLTFDADVKEEFVEDAAALKALFQLSRLEERSVLFAVASALVNCTNSYDYEEPDPKMVELAKYAKQHVPEQHPKDKPSFVRARVKKLLAAGVVSAMVCMVKTESPVLTSSCRELLSRVFLALVEEVEDRGTVVAQGGGRALIPLALEGTDVGQTKAAQALAKLTITSNPEMTFPGERIYEVVRPLVSLLHLNCSGLQNFEALMALTNLAGISERLRQKILKEKAVPMIEGYMFEEHEMIRRAATECMCNLAMSKEVQDLFEAQGNDRLKLLVLYSGEDDELLQRAAAGGLAMLTSMRPTLCSRIPQVTTHWLEILQALLLSSNQELQHRGAVVVLNMVEASREIASTLMESEMMEILSVLAKGDHSPVTRAAAACLDKAVEYGLIQPNQDGE
B1 showed a percent of UNC-45A bound to MTs of 100%.
